This note sets out measurements from patent US20220298235A1 (AKESO BIOPHARMA, published 2022).

In experiment [1] the target is T1, human p40-His (human, UniProt P29460 23-328).
T1 construct: Made by Akeso Biopharma; construct limits and tag not described; also called human IL-12/IL-23 p40 protein domain; human IL-12/IL-23 p40; not shown: His tag
T1 sequence (looked up): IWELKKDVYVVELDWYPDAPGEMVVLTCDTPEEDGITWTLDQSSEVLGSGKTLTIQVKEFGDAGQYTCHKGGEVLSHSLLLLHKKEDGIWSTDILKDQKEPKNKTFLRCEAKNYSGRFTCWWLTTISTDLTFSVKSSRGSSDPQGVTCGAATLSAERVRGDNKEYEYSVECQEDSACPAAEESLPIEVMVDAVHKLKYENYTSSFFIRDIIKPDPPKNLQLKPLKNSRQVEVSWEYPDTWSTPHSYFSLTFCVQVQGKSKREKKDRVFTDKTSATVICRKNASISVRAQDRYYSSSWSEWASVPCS
As to the kind of experiment: indirect ELISA, p40-His coat 0.25 µg/mL. The method, then:
A microplate was coated with human p40-His (Akeso Biopharma, Inc.; gene of p40: GeneBank NM002187). After incubation at 4° C. for no less than 12 h, the plate was washed with PBST, patted dry and blocked with a solution of 1% BSA in PBS. After blocking was completed, the plate was washed with PBST and patted dry. The antibody diluted with PBST solution in gradient was added into the wells of the plate, and the antibody dilution gradient is detailed in Table 1. The plate containing the test antibody was incubated at 37° C. for 30 min and then washed with PBST and patted dry. […] TMB (Neogen, 308177) was added for color developing for 5 min in the absence of light, and then stop solution was added to terminate the chromogenic reaction. Then the plate was put into a plate reader immediately, and the OD value of each well in the plate was read at 450 nm. The data were analyzed by SoftMax Pro 6.2.1.
The binding EC₅₀ of antibody was calculated by curve fitting using antibody concentration as the abscissa and absorbance value as the ordinate, and the results are shown in Table 4 below.

The next experiment deals with T2, Human IL12 (His Tag) (human, UniProt P29459 23-219; P29460 23-328).
T2 construct: Bought His-tagged heterodimer
T2 sequence (looked up) 1: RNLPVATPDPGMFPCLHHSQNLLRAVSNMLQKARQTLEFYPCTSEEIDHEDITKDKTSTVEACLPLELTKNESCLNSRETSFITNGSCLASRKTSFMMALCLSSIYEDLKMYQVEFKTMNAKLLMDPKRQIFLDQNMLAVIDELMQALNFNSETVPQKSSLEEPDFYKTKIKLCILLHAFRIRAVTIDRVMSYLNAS
T2 sequence (looked up) 2: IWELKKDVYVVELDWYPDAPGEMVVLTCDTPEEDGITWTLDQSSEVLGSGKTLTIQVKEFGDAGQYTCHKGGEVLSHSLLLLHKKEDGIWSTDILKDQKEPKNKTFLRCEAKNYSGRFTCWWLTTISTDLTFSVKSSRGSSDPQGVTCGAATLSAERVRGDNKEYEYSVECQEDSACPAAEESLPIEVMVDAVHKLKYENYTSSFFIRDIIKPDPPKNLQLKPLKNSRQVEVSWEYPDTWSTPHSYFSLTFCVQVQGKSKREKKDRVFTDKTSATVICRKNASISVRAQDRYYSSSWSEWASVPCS
As to the kind of experiment: FACS competition, IL12-His (40 nM mixed 1:1) on 293T-IL-12Rβ1&IL-23R cells. On the procedure: 200 μL of 1% PBSA was added into each sample, and the mixture was centrifuged at 1200 rpm for 5 min to discard the supernatant. According to experiment design, correspondingly diluted antibody (highest final concentration of 60 μg/mL, 3-fold dilution, 8 concentrations in total) and IL12-His (Sino Biological, Cat. No.: CT-050-H08H-20) (40 nM) were mixed at a ratio of 1:1, and a blank control was set. The mixture of antibody and IL12 was incubated on ice for 30 min and then added to the cell precipitate at 100 μL/sample. The resulting mixture was well mixed and incubated on ice for 60 min 200 μL of 1% PBSA was added, and the mixture was centrifuged at 1200 rpm for 5 min to discard the supernatant, and then washed twice. THETM His tag antibody (FITC) (Genscript, Cat. No.: A01620) was diluted at a ratio of 1:500 and added to each tube at 100 μL. The mixture was well mixed and incubated on ice for 40 min in the absence of light. 200 μL of 1% PBSA was added, and the mixture was centrifuged at 1200 rpm for 5 min to discard the supernatant, and then washed twice. 1% PBSA was added at 200 μL/tube, and the cells were resuspended and transferred to a flow cytometry tube for testing.

Experiment [2] concerns the target T1, human p40-His. As to the kind of experiment: BLI (Fortebio), p40-His on HIS1K sensor, antibody 5-0.31 nM, 37 °C, 1:1 fit. On the procedure: The sample dilution buffer for H5L9, H5L10, H5L11, H5L12, H5L14, H8L15, Ab123FR1 and ustekinumab was PBS (0.02% Tween-20, 0.1% BSA, pH 7.4). p40-His was immobilized on a HIS1K (manufacturer: Fortebio, Cat. No.: 18-5120) sensor at a concentration of 1 μg/mL for 40 s. The sensor was equilibrated in a buffer for 60 s, and the p40-His immobilized on the sensor bound to the antibody at a concentration of 5-0.31 nM (two-fold dilution) for 120 s, and then the protein dissociated in the buffer for 300 s. The sensor was refreshed with 10 mM glycine solution (pH=1.5). The detection temperature was 37° C., the detection frequency was 0.3 Hz, and the sample plate shaking rate was 500 rpm. The data were analyzed by 1:1 model fitting to obtain affinity constants.

Experiment [3] addresses T3, human IL-23 (IL-23-His-Biotin) (human, UniProt Q9NPF7 20-189; P29460 23-328, biotin label, site not stated).
T3 construct: Akesobio lot 20161209; His-tagged and biotinylated
T3 sequence (looked up) 1: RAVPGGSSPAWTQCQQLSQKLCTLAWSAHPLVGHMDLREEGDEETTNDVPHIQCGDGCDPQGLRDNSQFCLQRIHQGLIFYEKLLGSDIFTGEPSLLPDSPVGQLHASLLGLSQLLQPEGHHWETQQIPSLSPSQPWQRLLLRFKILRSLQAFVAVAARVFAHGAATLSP
T3 sequence (looked up) 2: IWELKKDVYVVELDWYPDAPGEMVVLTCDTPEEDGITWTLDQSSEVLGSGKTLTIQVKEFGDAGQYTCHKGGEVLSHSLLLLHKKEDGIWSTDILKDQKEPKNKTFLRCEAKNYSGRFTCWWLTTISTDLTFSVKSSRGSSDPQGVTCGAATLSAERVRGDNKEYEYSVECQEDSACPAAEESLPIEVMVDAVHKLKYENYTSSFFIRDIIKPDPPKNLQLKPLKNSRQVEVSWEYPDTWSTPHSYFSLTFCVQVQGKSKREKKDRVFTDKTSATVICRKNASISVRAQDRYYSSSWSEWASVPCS
Description: FACS competition, IL23-His-Biotin (4 µg/mL mixed 1:1) on 293T-IL-12Rβ1&IL-23R cells. The method, then: 200 μL of 1% PBSA was added into each sample, and the mixture was centrifuged at 1200 rpm for 5 min to discard the supernatant. According to experiment design, correspondingly diluted antibody (highest concentration of 60 μg/mL, 3-fold dilution, 8 concentrations in total) and human IL23-His-Biotin (Akeso Biopharma, Inc., Lot. No.: 20161209) (4 μg/mL) were mixed at a ratio of 1:1, and a blank control was set. The mixture of antibody and IL23-His-Biotin was incubated on ice for 30 min and then added to the cell precipitate at 100 μL/sample. The resulting mixture was well mixed and incubated on ice for 60 min. 200 μL of 1% PBSA was added, and the mixture was centrifuged at 1200 rpm for 5 min to discard the supernatant, and then washed twice. FITC Steptavidin (Biolegend, Cat. No.: 405202) was diluted at a ratio of 1:500 and added to each tube at 100 μL. The mixture was well mixed and incubated on ice for 40 min in the absence of light. 200 μL of 1% PBSA was added, and the mixture was centrifuged at 1200 rpm for 5 min to discard the supernatant, and then washed twice. 1% PBSA was added at 200 μL/tube, and the cells were resuspended and transferred to a flow cytometry tube for testing.

B1: H8L15 (antibody, human IgG1, kappa, V domains shown)
VH: EVQLVQSGAEVKKPGESLKISCQSSGYTFTSYWIGWVRQMPGQGLEWIGIMSPVDSDIRYNPMFRGQVTMSVDKSSSTAYLQWSSLKASDTAMYYCARRRPGQGYFDFWGQGTMVTVSS
VL: EIVLTQSPATLSASPGERATISCRASQSVGTWVAWYQQKPGQAPRSLIYAASNLQSGIPARFSGSGSGTDFTLTISSLEPEDFAVYYCQQYNIYPYTFGQGTRLEIKR
notes: human IgG1 (P01857) / kappa (P01834) constant regions; also called anti-human IL-12/IL-23 p40 antibody H8L15; H8L15H1L1
For B1, the EC50 with human p40-His [1] came to 0.059 nM. The molecule also showed an EC50 in the experiment with Human IL12 (His Tag) of 1.46 µg/mL. Further, in the experiment with human p40-His [2], the Kd came out at 0.0609 nM, the “S E (kon)” value came out at 213000 M⁻¹ s⁻¹, the “S E(kdis)” value was 0.000137 s⁻¹ and the koff was found to be 0.00018 s⁻¹. The molecule further came in with a kon with human p40-His [2] of 2.95e+06 M⁻¹ s⁻¹. For the same molecule, in experiment [3], the half-maximal effective concentration (EC50) turned out to be 0.894 µg/mL.
